In patent US20160031999A1 (CSL, published 2016):

T1: human IL-11Rα (form used in the assay not stated) (human, UniProt Q14626 23-363, limits assumed)
T1 construct: also called hIL-11R; hIL-11Rα
T1 sequence: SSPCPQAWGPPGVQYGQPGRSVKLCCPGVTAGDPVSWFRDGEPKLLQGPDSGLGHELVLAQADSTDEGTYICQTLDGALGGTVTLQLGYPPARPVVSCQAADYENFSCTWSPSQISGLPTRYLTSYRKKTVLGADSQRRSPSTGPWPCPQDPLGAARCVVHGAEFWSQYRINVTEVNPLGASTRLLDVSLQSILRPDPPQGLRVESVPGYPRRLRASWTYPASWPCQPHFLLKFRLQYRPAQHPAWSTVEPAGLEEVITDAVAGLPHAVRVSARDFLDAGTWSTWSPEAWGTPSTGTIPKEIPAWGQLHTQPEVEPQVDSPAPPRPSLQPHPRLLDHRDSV

T2: human IL-11Rα on transfected cells (human, UniProt Q14626 23-422)
T2 sequence: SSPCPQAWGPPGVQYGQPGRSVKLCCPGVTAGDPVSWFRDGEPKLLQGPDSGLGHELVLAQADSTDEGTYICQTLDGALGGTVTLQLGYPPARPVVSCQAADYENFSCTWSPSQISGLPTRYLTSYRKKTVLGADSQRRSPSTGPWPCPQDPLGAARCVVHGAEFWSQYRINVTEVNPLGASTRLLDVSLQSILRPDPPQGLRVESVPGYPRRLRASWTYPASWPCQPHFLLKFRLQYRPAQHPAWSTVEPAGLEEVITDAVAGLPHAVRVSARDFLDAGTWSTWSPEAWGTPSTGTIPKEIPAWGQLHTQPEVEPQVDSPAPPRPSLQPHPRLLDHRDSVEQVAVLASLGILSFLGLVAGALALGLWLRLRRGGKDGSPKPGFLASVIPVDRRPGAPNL


Columns and labels:
[1] = molecular target: T1, human IL-11Rα (form used in the assay …); experiment: Biacore, pH 8.5, 37°C
[2] = molecular target: T2, human IL-11Rα on transfected cells; experiment: cell-based or functional assay

Row | Binder | Kd [1] | Fold increase in potency relative to 8E2 [2] | IC50 [2]
1 | hu8E2-TS-14 (antibody, V domains shown) VH: EVQLLESGGGLVQPGGSLRLSCAASGFTFSWYSMTWVRQAPGKGLEWVSSIVPSGGHTQYADSVKGRFTISRDNSKNTLYLQMNSLRAEDTAVYYCAKGPGWGSFDLWGRGTLVTVSS VL: DIQMTQSPSSLSASVGDRVTITCQASQDINNYLNWYQQKPGKAPKLLIYDASNLQTGVPSRFSGSGSGTDFTFTISSLQPEDIATYYCQQHDNQSPTFGPGTKVDIK | 342 pM | 1.6 fold | 0.52 µg/mL
2 | hu8E2-TS-22 (antibody, V domains shown) VH: EVQLLESGGGLVQPGGSLRLSCAASGFTFSWYSMTWVRQAPGKGLEWVSSIVPSGGHTQYADSVKGRFTISRDNSKNTLYLQMNSLRAEDTAVYYCAKGPGWGSFDLWGRGTLVTVSS VL: DIQMTQSPSSLSASVGDRVTITCQASQDINNYLNWYQQKPGKAPKLLIYDASNLQTGVPSRFSGSGSGTDFTFTISSLQPEDIATYYCQQFETQSPTFGPGTKVDIK | 838 pM | 2 fold | 0.4 µg/mL
3 | hu8E2-TS-21 (antibody, V domains shown) VH: EVQLLESGGGLVQPGGSLRLSCAASGFTFSWYSMTWVRQAPGKGLEWVSSIVPSGGHTQYADSVKGRFTISRDNSKNTLYLQMNSLRAEDTAVYYCAKGPGWGSFDLWGRGTLVTVSS VL: DIQMTQSPSSLSASVGDRVTITCQASQDINNYLNWYQQKPGKAPKLLIYDASNLQTGVPSRFSGSGSGTDFTFTISSLQPEDIATYYCQQSESQSPTFGPGTKVDIK | 230 pM | 2.7 fold | 0.31 µg/mL
4 | hu8E2-TS-2 (antibody, V domains shown) VH: EVQLLESGGGLVQPGGSLRLSCAASGFTFSWYSMTWVRQAPGKGLEWVSSIVPSGGHTQYADSVKGRFTISRDNSKNTLYLQMNSLRAEDTAVYYCAKGPGWGSFDLWGRGTLVTVSS VL: DIQMTQSPSSLSASVGDRVTITCQASQDINNYLNWYQQKPGKAPKLLIYDASNLQTGVPSRFSGSGSGTDFTFTISSLQPEDIATYYCQQAEDQSPTFGPGTKVDIK | 529 pM | 7.9 fold | 0.26 µg/mL
5 | hu8E2-TS-6 (antibody, V domains shown) VH: EVQLLESGGGLVQPGGSLRLSCAASGFTFSWYSMTWVRQAPGKGLEWVSSIVPSGGHTQYADSVKGRFTISRDNSKNTLYLQMNSLRAEDTAVYYCAKGPGWGSFDLWGRGTLVTVSS VL: DIQMTQSPSSLSASVGDRVTITCQASQDINNYLNWYQQKPGKAPKLLIYDASNLQTGVPSRFSGSGSGTDFTFTISSLQPEDIATYYCEQFESQSPTFGPGTKVDIK | 289 pM | 1.4 fold | 0.41 µg/mL
6 | hu8E2-TS-57 (antibody, V domains shown) VH: EVQLLESGGGLVQPGGSLRLSCAASGFTFSWYSMTWVRQAPGKGLEWVSSIVPSGGHTQYADSVKGRFTISRDNSKNTLYLQMNSLRAEDTAVYYCAKGPGWGSFDLWGRGTLVTVSS VL: DIQMTQSPSSLSASVGDRVTITCQASQDINNYLNWYQQKPGKAPKLLIYDASNLQTGVPSRFSGSGSGTDFTFTISSLQPEDIATYYCQQYETQMPLFGPGTKVDIK | 658 pM | 3.9 fold | 0.25 µg/mL
7 | hu8E2-TS-17 (antibody, V domains shown) VH: EVQLLESGGGLVQPGGSLRLSCAASGFTFSWYSMTWVRQAPGKGLEWVSSIVPSGGHTQYADSVKGRFTISRDNSKNTLYLQMNSLRAEDTAVYYCAKGPGWGSFDLWGRGTLVTVSS VL: DIQMTQSPSSLSASVGDRVTITCQASQDINNYLNWYQQKPGKAPKLLIYDASNLQTGVPSRFSGSGSGTDFTFTISSLQPEDIATYYCSQFESQSPTFGPGTKVDIK | 390 pM | 2.3 fold | 0.35 µg/mL
8 | hu8E2-TS-32 (antibody, V domains shown) VH: EVQLLESGGGLVQPGGSLRLSCAASGFTFSWYSMTWVRQAPGKGLEWVSSIVPSGGHTQYADSVKGRFTISRDNSKNTLYLQMNSLRAEDTAVYYCAKGPGWGSFDLWGRGTLVTVSS VL: DIQMTQSPSSLSASVGDRVTITCQASQDINNYLNWYQQKPGKAPKLLIYDASNLQTGVPSRFSGSGSGTDFTFTISSLQPEDIATYYCTQWETQSPTFGPGTKVDIK | 9560 pM | 2.4 fold | 0.41 µg/mL
9 | hu8E2-TS-29 (antibody, V domains shown) VH: EVQLLESGGGLVQPGGSLRLSCAASGFTFSWYSMTWVRQAPGKGLEWVSSIVPSGGHTQYADSVKGRFTISRDNSKNTLYLQMNSLRAEDTAVYYCAKGPGWGSFDLWGRGTLVTVSS VL: DIQMTQSPSSLSASVGDRVTITCQASQDINNYLNWYQQKPGKAPKLLIYDASNLQTGVPSRFSGSGSGTDFTFTISSLQPEDIATYYCQQSEEQSPTFGPGTKVDIK | 1060 pM | 2.5 fold | 0.33 µg/mL
10 | hu8E2-TS-20 (antibody, V domains shown) VH: EVQLLESGGGLVQPGGSLRLSCAASGFTFSWYSMTWVRQAPGKGLEWVSSIVPSGGHTQYADSVKGRFTISRDNSKNTLYLQMNSLRAEDTAVYYCAKGPGWGSFDLWGRGTLVTVSS VL: DIQMTQSPSSLSASVGDRVTITCQASQDINNYLNWYQQKPGKAPKLLIYDASNLQTGVPSRFSGSGSGTDFTFTISSLQPEDIATYYCQQNESQSPTFGPGTKVDIK | 284 pM | 0.6 fold | 1.3 µg/mL
11 | hu8E2-TS-9 (antibody, V domains shown) VH: EVQLLESGGGLVQPGGSLRLSCAASGFTFSWYSMTWVRQAPGKGLEWVSSIVPSGGHTQYADSVKGRFTISRDNSKNTLYLQMNSLRAEDTAVYYCAKGPGWGSFDLWGRGTLVTVSS VL: DIQMTQSPSSLSASVGDRVTITCQASQDINNYLNWYQQKPGKAPKLLIYDASNLQTGVPSRFSGSGSGTDFTFTISSLQPEDIATYYCQQAEEQSPTFGPGTKVDIK | 2290 pM | 3.1 fold | 0.68 µg/mL
12 | hu8E2-TS-51 (antibody, V domains shown) VH: EVQLLESGGGLVQPGGSLRLSCAASGFTFSWYSMTWVRQAPGKGLEWVSSIVPSGGHTQYADSVKGRFTISRDNSKNTLYLQMNSLRAEDTAVYYCAKGPGWGSFDLWGRGTLVTVSS VL: DIQMTQSPSSLSASVGDRVTITCQASQDINNYLNWYQQKPGKAPKLLIYDASNLQTGVPSRFSGSGSGTDFTFTISSLQPEDIATYYCQQYESQWPFFGPGTKVDIK | 455 pM | 3.6 fold | 0.28 µg/mL
13 | hu8E2-TS-49 (antibody, V domains shown) VH: EVQLLESGGGLVQPGGSLRLSCAASGFTFSWYSMTWVRQAPGKGLEWVSSIVPSGGHTQYADSVKGRFTISRDNSKNTLYLQMNSLRAEDTAVYYCAKGPGWGSFDLWGRGTLVTVSS VL: DIQMTQSPSSLSASVGDRVTITCQASQDINNYLNWYQQKPGKAPKLLIYDASNLQTGVPSRFSGSGSGTDFTFTISSLQPEDIATYYCQQYESQAPEFGPGTKVDIK | 1500 pM | 5.2 fold | 0.19 µg/mL
14 | hu8E2-TS-4 (antibody, V domains shown) VH: EVQLLESGGGLVQPGGSLRLSCAASGFTFSWYSMTWVRQAPGKGLEWVSSIVPSGGHTQYADSVKGRFTISRDNSKNTLYLQMNSLRAEDTAVYYCAKGPGWGSFDLWGRGTLVTVSS VL: DIQMTQSPSSLSASVGDRVTITCQASQDINNYLNWYQQKPGKAPKLLIYDASNLQTGVPSRFSGSGSGTDFTFTISSLQPEDIATYYCQQHEFQSPTFGPGTKVDIK | 295 pM | 6.6 fold | 0.31 µg/mL
15 | hu8E2-TS-55 (antibody, V domains shown) VH: EVQLLESGGGLVQPGGSLRLSCAASGFTFSWYSMTWVRQAPGKGLEWVSSIVPSGGHTQYADSVKGRFTISRDNSKNTLYLQMNSLRAEDTAVYYCAKGPGWGSFDLWGRGTLVTVSS VL: DIQMTQSPSSLSASVGDRVTITCQASQDINNYLNWYQQKPGKAPKLLIYDASNLQTGVPSRFSGSGSGTDFTFTISSLQPEDIATYYCQQYETQTPAFGPGTKVDIK | 483 pM | 4.8 fold | 0.21 µg/mL
16 | hu8E2-TS-7 (antibody, V domains shown) VH: EVQLLESGGGLVQPGGSLRLSCAASGFTFSWYSMTWVRQAPGKGLEWVSSIVPSGGHTQYADSVKGRFTISRDNSKNTLYLQMNSLRAEDTAVYYCAKGPGWGSFDLWGRGTLVTVSS VL: DIQMTQSPSSLSASVGDRVTITCQASQDINNYLNWYQQKPGKAPKLLIYDASNLQTGVPSRFSGSGSGTDFTFTISSLQPEDIATYYCQQHENQSPTFGPGTKVDIK | 108 pM | 3.3 fold | 0.63 µg/mL
